Where “and” joins values, the source holds several entries; their conditions need not be identical. Identical values can stand only once.
Columns and labels:
[1] = molecular target: microtubules polymerised from tubulin (α1B and β2B tubulin), P81947;Q6B856; experiment: MT cosedimentation assay; settings: 3 μM Ska and 6 μM vinblastine spirals; parent: est. 0.60; read off a plot
[2] = molecular target: T1, microtubules polymerised from tubulin (α1B and β2B tubulin) (UniProt P81947 1-451; Q6B856 1-445); experiment: co-sedimentation; MT-pelleting assay: taxol-stabilized MTs or subtilisin-treated MTs (0-12 μM tubulin dimer) with 1 or 3 μM protein, 10 min at room temperature, BRB80 (80 mM PIPES pH 6.9, 1 mM EGTA, 1 mM MgCl2) with 100 mM NaCl, 4 mM DTT, 20 μM taxol; spun through a glycerol cushion, 25 °C; SDS-PAGE, Coomassie, ImageJ. Kd: 1 μM Ska and 0-12 μM MTs; single points: 3 μM Ska (or 1 μM) and 6 μM MTs; settings: both partners purified
T1 construct: α-tubulin, printed as α1B tubulin; β-tubulin, printed as β2B tubulin; Polymer of α/β-tubulin dimers; The same tubulin stood as taxol-stabilized (straight) MTs and as vinblastine spirals (curved); the assay tells them apart; brain tubulin is a mix of isotypes; also called MTs; taxol-stabilized MTs; source: bought: Cytoskeleton Inc. (tubulin), polymerised; taxol-stabilized MTs or vinblastine spirals
T1 sequence (P81947 whole entry, chain 1 of 2): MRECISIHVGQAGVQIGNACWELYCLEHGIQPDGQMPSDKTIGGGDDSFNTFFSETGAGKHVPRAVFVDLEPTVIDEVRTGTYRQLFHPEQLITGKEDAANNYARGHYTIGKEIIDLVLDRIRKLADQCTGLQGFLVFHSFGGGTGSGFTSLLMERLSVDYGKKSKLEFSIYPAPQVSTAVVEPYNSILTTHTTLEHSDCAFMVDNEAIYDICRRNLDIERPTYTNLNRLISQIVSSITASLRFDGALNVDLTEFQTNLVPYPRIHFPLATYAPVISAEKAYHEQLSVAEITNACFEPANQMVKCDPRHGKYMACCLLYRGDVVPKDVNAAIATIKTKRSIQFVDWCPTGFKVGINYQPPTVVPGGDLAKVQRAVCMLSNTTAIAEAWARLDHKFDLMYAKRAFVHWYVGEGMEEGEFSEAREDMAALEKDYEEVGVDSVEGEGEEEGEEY
T1 sequence (Q6B856 whole entry, chain 2 of 2): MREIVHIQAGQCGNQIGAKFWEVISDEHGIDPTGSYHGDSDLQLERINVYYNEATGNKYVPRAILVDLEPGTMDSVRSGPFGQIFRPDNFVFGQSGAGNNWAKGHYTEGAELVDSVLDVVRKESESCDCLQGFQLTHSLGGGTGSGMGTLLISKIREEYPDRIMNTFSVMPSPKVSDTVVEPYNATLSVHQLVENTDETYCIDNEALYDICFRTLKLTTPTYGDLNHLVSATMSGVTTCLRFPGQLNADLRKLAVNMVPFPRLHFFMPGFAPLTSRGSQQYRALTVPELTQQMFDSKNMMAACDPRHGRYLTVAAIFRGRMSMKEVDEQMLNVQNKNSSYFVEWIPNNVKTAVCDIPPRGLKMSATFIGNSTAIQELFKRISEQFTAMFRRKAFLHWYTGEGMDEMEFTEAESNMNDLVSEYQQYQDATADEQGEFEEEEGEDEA

response (bound fraction) [1]: 0.63 and 0.21 and 0.31
Kd [2]: 2.9 ± 0.6 µM
B1: human Ska complex (Ska1, Ska2, Ska3), wild type, full length (complex)
chain 1: MASSDLEQLCSHVNEKIGNIKKTLSLRNCGQEPTLKTVLNKIGDEIIVINELLNKLELEIQYQEQTNNSLKELCESLEEDYKDIEHLKENVPSHLPQVTVTQSCVKGSDLDPEEPIKVEEPEPVKKPPKEQRSIKEMPFITCDEFNGVPSYMKSRLTYNQINDVIKEINKAVISKYKILHQPKKSMNSVTRNLYHRFIDEETKDTKGRYFIVEADIKEFTTLKADKKFHVLLNILRHCRRLSEVRGGGLTRYVIT
chain 2: MEAEVDKLELMFQKAESDLDYIQYRLEYEIKTNHPDSASEKNPVTLLKELSVIKSRYQTLYARFKPVAVEQKESKSRICATVKKTMNMIQKLQKQTDLELSPLTKEEKTAAEQFKFHMPDL
chain 3: MDPIRSFCGKLRSLASTLDCETARLQRALDGEESDFEDYPMRILYDLHSEVQTLKDDINILLDKARLENQEGIDFIKATKVLMEKNSMDIMKIREYFQKYGYSPRVKKNSVHEQEAINSDPELSNCENFQKTDVKDDLSDPPVASSCISEKSPRSPQLSDFGLERYIVSQVLPNPPQAVNNYKEEPVIVTPPTKQSLVKVLKTPKCALKMDDFECVTPKLEHFGISEYTMCLNEDYTMGLKNARNNKSEEAIDTESRLNDNVFATPSPIIQQLEKSDAEYTNSPLVPTFCTPGLKIPSTKNSIALVSTNYPLSKTNSSSNDLEVEDRTSLVLNSDTCFENLTDPSSPTISSYENLLRTPTPPEVTKIPEDILQLLSKYNSNLATPIAIKAVPPSKRFLKHGQNIRDVSNKEN
notes: Ska1, human; Ska2, human; Ska3, human, V58I as cloned; Ska3 V58I is printed without explanation; TEV-cleavable tags removed in solution; also called WT Ska complex; FL Ska complex; source: E. coli BL21 Gold, co-expressed, purified (glutathione sepharose, size-exclusion chromatography); copies: 2 + 2 + 2
